Data taken from publication PMC10641296 (2023).
Several values for one entry are separate records, joined by “and”; a condition that tells them apart may be missing. Equal values may be shown once.

Legend:
[1] = target: recombinant histidine-tagged SCM-2 of S. canis strain IMT40096 (Streptococcus canis); experiment: SPR
[2] = target: recombinant histidine-tagged SCM-2 of S. canis strain IMT42870 (Streptococcus canis); experiment: SPR

B1: human fibrinogen (complex)
chain 1: GPRVVERHQSACKDSDWPFCSDEDWNYKCPSGCRMKGLIDEVNQDFTNRINKLKNSLFEYQKNNKDSHSLTTNIMEILRGDFSSANNRDNTYNRVSEDLRSRIEVLKRKVIEKVQHIQLLQKNVRAQLVDMKRLEVDIDIKIRSCRGSCSRALAREVDLKDYEDQQKQLEQVIAKDLLPSRDRQHLPLIKMKPVPDLVPGNFKSQLQKVPPEWKALTDMPQMRMELERPGGNEITRGGSTSYGTGSETESPRNPSSAGSWNSGSSGPGSTGNRNPGSSGTGGTATWKPGSSGPGSTGSWNSGSSGTGSTGNQNPGSPRPGSTGTWNPGSSERGSAGHWTSESSVSGSTGQWHSESGSFRPDSPGSGNARPNNPDWGTFEEVSGNVSPGTRREYHTEKLVTSKGDKELRTGKEKVTSGSTTTTRRSCSKTVTKTVIGPDGHKEVTKEVVTSEDGSDCPEAMDLGTLSGIGTLDGFRHRHPDEAAFFDTASTGKTFPGFFSPMLGEFVSETESRGSESGIFTNTKESSSHHPGIAEFPSRGKSSSYSKQFTSSTSYNRGDSTFESKSYKMADEAGSEADHEGTHSTKRGHAKSRPVRDCDDVLQTHPSGTQSGIFNIKLPGSSKIFSVYCDQETSLGGWLLIQQRMDGSLNFNRTWQDYKRGFGSLNDEGEGEFWLGNDYLHLLTQRGSVLRVELEDWAGNEAYAEYHFRVGSEAEGYALQVSSYEGTAGDALIEGSVEEGAEYTSHNNMQFSTFDRDADQWEENCAEVYGGGWWYNNCQAANLNGIYYPGGSYDPRNNSPYEIENGVVWVSFRGADYSLRAVRMKIRPLVTQ
chain 2: GHRPLDKKREEAPSLRPAPPPISGGGYRARPAKAAATQKKVERKAPDAGGCLHADPDLGVLCPTGCQLQEALLQQERPIRNSVDELNNNVEAVSQTSSSSFQYMYLLKDLWQKRQKQVKDNENVVNEYSSELEKHQLYIDETVNSNIPTNLRVLRSILENLRSKIQKLESDVSAQMEYCRTPCTVSCNIPVVSGKECEEIIRKGGETSEMYLIQPDSSVKPYRVYCDMNTENGGWTVIQNRQDGSVDFGRKWDPYKQGFGNVATNTDGKNYCGLPGEYWLGNDKISQLTRMGPTELLIEMEDWKGDKVKAHYGGFTVQNEANKYQISVNKYRGTAGNALMDGASQLMGENRTMTIHNGMFFSTYDRDNDGWLTSDPRKQCSKEDGGGWWYNRCHAANPNGRYYWGGQYTWDMAKHGTDDGVVWMNWKGSWYSMRKMSMKIRPFFPQQ
chain 3: YVATRDNCCILDERFGSYCPTTCGIADFLSTYQTKVDKDLQSLEDILHQVENKTSEVKQLIKAIQLTYNPDESSKPNMIDAATLKSRKMLEEIMKYEASILTHDSSIRYLQEIYNSNNQKIVNLKEKVAQLEAQCQEPCKDTVQIHDITGKDCQDIANKGAKQSGLYFIKPLKANQQFLVYCEIDGSGNGWTVFQKRLDGSVDFKKNWIQYKEGFGHLSPTGTTEFWLGNEKIHLISTQSAIPYALRVELEDWNGRTSTADYAMFKVGPEADKYRLTYAYFAGGDAGDAFDGFDFGDDPSDKFFTSHNGMQFSTWDNDNDKFEGNCAEQDGSGWWMNKCHAGHLNGVYYQGGTYSKASTPNGYDNGIIWATWKTRWYSMKKTTMKIIPFNRLTIGEGQQHHLGGAKQVRPEHPAETEYDSLYPEDDL
- Kd [1]: 15.5 nM and 14.3 nM and 15.1 nM
- koff [1]: 0.000922 s⁻¹ and 0.000948 s⁻¹ and 0.000989 s⁻¹
- Kd [2]: 177 nM and 188 nM and 208 nM
- koff [2]: 0.00271 s⁻¹ and 0.0024 s⁻¹ and 0.00216 s⁻¹
